Measured values published in paper PMC4682968, “Studies on the Glutathione-Dependent Formaldehyde-Activating Enzyme from Paracoccus denitrificans” (PLoS ONE, 2015).

Biological target: the molecule itself
Assay: SEC; analytical size-exclusion chromatography of wild type non-tagged GFA, calibrated with standard protein samples; apparent Mw = 42 kDa

B1: glutathione-dependent formaldehyde-activating enzyme (GFA) from Paracoccus denitrificans, wild type, non-tagged (enzyme)
chain: GHMVDTSGVKIHPAVDNGIKPAQPGFAGGTLHCKCSTNPVRVAVRAQTAHNHVCGCTKCWKPEGAIFSQVAVVGRDALEVLEGAEKLEIVNAEAPIQRHRCRDCGVHMYGRIENRDHPFYGLDFVHTELSDEDGWSAPEFAAFVSSIIESGVDPSRMEAIRARLRELGLEPYDALSPPLMDAIATHIAKRSGALAA
notes: an additional glycine residue and a histidine residue left on the N-terminus after TEV protease removal of the His-Tag; Expressed from a modified pET16b plasmid with a TEV site between the His-Tag and the insert; also called GFA WT; wild type non-tagged GFA; not shown: His-Tag, N-terminal, cleaved
stoichiometry N: 2
